In US20250043302A1, “MUTATED HYDROXYPHENYLPYRUVATE DIOXYGENASE POLYPEPTIDE, AND CODING GENE AND USE THEREOF” (BEIJING DABEINONG BIOTECHNOLOGY CO., LTD., priority 2021, published 2025):

B1: AtHPPDm-F415W-02: nucleotide sequence encoding Arabidopsis thaliana HPPD with F415W; vector DBN11793 (nucleic acid)
DNA: ATGGGACATCAGAATGCTGCTGTATCAGAAAATCAAAATCATGATGATGGAGCCGCCTCCTCACCAGGGTTTAAGTTGGTTGGGTTCTCCAAGTTTGTACGGAAGAACCCAAAATCCGACAAGTTCAAGGTTAAACGCTTCCACCACATTGAATTCTGGTGCGGCGACGCCACCAATGTTGCTCGGCGTTTTTCATGGGGTTTAGGCATGAGATTCTCAGCAAAGAGTGACCTGAGCACCGGCAACATGGTTCATGCTAGCTATCTCTTAACATCTGGAGATTTGAGGTTTCTTTTCACGGCGCCGTACTCACCATCACTCTCCGCCGGCGAGATCAAACCCACCACGACTGCAAGCATACCTTCATTTGATCATGGTAGTTGCAGATCCTTCTTCTCGTCGCACGGCCTAGGGGTGCGCGCGGTCGCCATCGAAGTTGAAGATGCAGAATCAGCGTTTAGTATCAGCGTGGCAAATGGAGCTATTCCTTCCTCCCCTCCAATTGTCCTCAATGAGGCTGTAACTATTGCCGAGGTGAAGTTGTATGGAGATGTTGTGCTGAGATATGTTTCTTACAAGGCAGAGGACACTGAGAAATCTGAATTTTTGCCTGGTTTTGAAAGGGTCGAGGATGCTTCAAGTTTTCCTCTTGATTACGGCATACGACGGTTGGATCACGCGGTTGGAAATGTACCAGAACTTGGGCCGGCGCTCACTTATGTGGCTGGTTTCACTGGATTCCATCAATTTGCTGAGTTCACAGCTGATGATGTTGGGACTGCTGAAAGTGGGTTGAACTCTGCAGTCCTCGCCTCTAATGATGAAATGGTGCTCCTCCCGATCAACGAGCCTGTGCATGGCACCAAAAGGAAATCACAAATACAGACATATCTTGAGCACAATGAAGGTGCAGGGCTTCAACATCTTGCACTGATGTCTGAAGACATTTTCCGTACGCTGAGAGAGATGAGGAAGAGAAGTAGTATTGGTGGATTTGACTTCATGCCTTCTCCCCCACCAACTTACTACCAGAACTTGAAGAAGAGGGTTGGTGATGTGCTATCTGATGACCAGATCAAGGAGTGTGAAGAATTGGGCATTCTTGTTGATCGGGACGACCAAGGAACATTACTGCAGATATTTACAAAACCACTTGGTGACCGCCCCACTATTTTTATTGAGATCATACAAAGAGTCGGCTGCATGATGAAGGATGAGGAAGGAAAAGCATATCAATCTGGTGGTTGTGGCGGCTTTGGGAAAGGAAACTGGTCTGAGCTGTTCAAATCCATCGAGGAGTATGAGAAGACCTTGGAGGCCAAGCAGCTCGTGGGTTGA
modifications: AtHPPDm-F415W-02 Nucleotide Sequence
notes: vector DBN11793
B2: AtHPPDm-F372A-F415W-02: nucleotide sequence encoding Arabidopsis thaliana HPPD with F372A+F415W; vector DBN11794 (nucleic acid)
DNA: ATGGGACATCAGAATGCTGCTGTATCAGAAAATCAAAATCATGATGATGGAGCCGCCTCCTCACCAGGGTTTAAGTTGGTTGGGTTCTCCAAGTTTGTACGGAAGAACCCAAAATCCGACAAGTTCAAGGTTAAACGCTTCCACCACATTGAATTCTGGTGCGGCGACGCCACCAATGTTGCTCGGCGTTTTTCATGGGGTTTAGGCATGAGATTCTCAGCAAAGAGTGACCTGAGCACCGGCAACATGGTTCATGCTAGCTATCTCTTAACATCTGGAGATTTGAGGTTTCTTTTCACGGCGCCGTACTCACCATCACTCTCCGCCGGCGAGATCAAACCCACCACGACTGCAAGCATACCTTCATTTGATCATGGTAGTTGCAGATCCTTCTTCTCGTCGCACGGCCTAGGGGTGCGCGCGGTCGCCATCGAAGTTGAAGATGCAGAATCAGCGTTTAGTATCAGCGTGGCAAATGGAGCTATTCCTTCCTCCCCTCCAATTGTCCTCAATGAGGCTGTAACTATTGCCGAGGTGAAGTTGTATGGAGATGTTGTGCTGAGATATGTTTCTTACAAGGCAGAGGACACTGAGAAATCTGAATTTTTGCCTGGTTTTGAAAGGGTCGAGGATGCTTCAAGTTTTCCTCTTGATTACGGCATACGACGGTTGGATCACGCGGTTGGAAATGTACCAGAACTTGGGCCGGCGCTCACTTATGTGGCTGGTTTCACTGGATTCCATCAATTTGCTGAGTTCACAGCTGATGATGTTGGGACTGCTGAAAGTGGGTTGAACTCTGCAGTCCTCGCCTCTAATGATGAAATGGTGCTCCTCCCGATCAACGAGCCTGTGCATGGCACCAAAAGGAAATCACAAATACAGACATATCTTGAGCACAATGAAGGTGCAGGGCTTCAACATCTTGCACTGATGTCTGAAGACATTTTCCGTACGCTGAGAGAGATGAGGAAGAGAAGTAGTATTGGTGGATTTGACTTCATGCCTTCTCCCCCACCAACTTACTACCAGAACTTGAAGAAGAGGGTTGGTGATGTGCTATCTGATGACCAGATCAAGGAGTGTGAAGAATTGGGCATTCTTGTTGATCGGGACGACCAAGGAACATTACTGCAGATAGCCACAAAACCACTTGGTGACCGCCCCACTATTTTTATTGAGATCATACAAAGAGTCGGCTGCATGATGAAGGATGAGGAAGGAAAAGCATATCAATCTGGTGGTTGTGGCGGCTTTGGGAAAGGAAACTGGTCTGAGCTGTTCAAATCCATCGAGGAGTATGAGAAGACCTTGGAGGCCAAGCAGCTCGTGGGTTGA
modifications: AtHPPDm-F372A-F415W-02 Nucleotide Sequence
notes: vector DBN11794

Assays:
Type in all cases: in vivo
[1] = system: Arabidopsis thaliana T1 plants; test: Topramezone tolerance of transgenic Arabidopsis thaliana T1 plants (spray, bleached leaf area grade, damage score); settings: Table 13; for Classification and statistics of the grade of pesticide damage Grade 0: number of plants at grade 0; for Classification and statistics of the grade of pesticide damage Grade 1: number of plants at grade 1; for Classification and statistics of the grade of pesticide damage Grade 2: number of plants at grade 2; for Classification and statistics of the grade of pesticide damage Grade 3: number of plants at grade 3; for Scores: pesticide damage score
How it was run: (§1)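 T1 transformants selected by glufosinate; 18-day-old plants, with empty-vector and wild-type controls, sprayed with topramezone (25–200 g ai/ha), isoxaflutole (35–280 g ai/ha) or mesotrione (52.5–420 g ai/ha), water as 0×. Bleached leaf area fraction scored at 7 DAT as grades 0–3.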

[2] = system: Arabidopsis thaliana T1 plants; test: Isoxaflutole tolerance of transgenic Arabidopsis thaliana T1 plants (spray, bleached leaf area grade, damage score); settings: for Classification and statistics of the grade of pesticide damage Grade 0 / Classification and statistics of the grade of pesticide damage Grade 1 / Classification and statistics of the grade of pesticide damage Grade 2 / Classification and statistics of the grade of pesticide damage Grade 3: number of plants in grade;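 as to Scores: Weighted damage index from 0 to 100 where higher means more damage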
How it was run: as §1

[3] = system: Arabidopsis thaliana T1 plants; test: Mesotrione tolerance of transgenic Arabidopsis thaliana T1 plants (spray, bleached leaf area grade, damage score); set-up: Scores: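 damage score 0-100 computed as Σ(N×S)/(T×M)×100 over grades 0-3 with higher meaning more damage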; settings: for Classification and statistics of the grade of pesticide damage Grade 0 / Classification and statistics of the grade of pesticide damage Grade 1 / Classification and statistics of the grade of pesticide damage Grade 2 / Classification and statistics of the grade of pesticide damage Grade 3: number of plants in grade
How it was run: as §1

| Molecule | Resistance evaluation ([1]; topramezone 25 g ai/ha (1×)) | Classification and statistics of the grade of pesticide damage Grade 0 ([1]; topramezone 25 g ai/ha (1×)) | Classification and statistics of the grade of pesticide damage Grade 1 ([1]; topramezone 25 g ai/ha (1×)) | Classification and statistics of the grade of pesticide damage Grade 2 ([1]; topramezone 25 g ai/ha (1×)) | Classification and statistics of the grade of pesticide damage Grade 3 ([1]; topramezone 25 g ai/ha (1×)) | Scores ([1]; topramezone 25 g ai/ha (1×)) | Resistance evaluation ([1]; topramezone 100 g ai/ha (4×)) | Classification and statistics of the grade of pesticide damage Grade 0 ([1]; topramezone 100 g ai/ha (4×)) | Classification and statistics of the grade of pesticide damage Grade 1 ([1]; topramezone 100 g ai/ha (4×)) | Classification and statistics of the grade of pesticide damage Grade 2 ([1]; topramezone 100 g ai/ha (4×)) | Classification and statistics of the grade of pesticide damage Grade 3 ([1]; topramezone 100 g ai/ha (4×)) | Scores ([1]; topramezone 100 g ai/ha (4×)) | Resistance evaluation ([2]; isoxaflutole 35 g ai/ha) | Scores ([2]; isoxaflutole 35 g ai/ha) | Classification and statistics of the grade of pesticide damage Grade 0 ([2]; isoxaflutole 35 g ai/ha) | Classification and statistics of the grade of pesticide damage Grade 1 ([2]; isoxaflutole 35 g ai/ha) | Classification and statistics of the grade of pesticide damage Grade 2 ([2]; isoxaflutole 35 g ai/ha) | Classification and statistics of the grade of pesticide damage Grade 3 ([2]; isoxaflutole 35 g ai/ha) | Resistance evaluation ([2]; isoxaflutole 70 g ai/ha) | Scores ([2]; isoxaflutole 70 g ai/ha) | also measured |
| --- | --- | --- | --- | --- | --- | --- | --- | --- | --- | --- | --- | --- | --- | --- | --- | --- | --- | --- | --- | --- | --- |
| B1 | Non-resistant | 0 | 0 | 0 | 16 | 100 | Non-resistant | 0 | 0 | 0 | 16 | 100 | Non-resistant | 100 | 0 | 0 | 0 | 16 | Non-resistant | 100 | Classification and statistics of the grade of pesticide damage Grade 0 ([2]; isoxaflutole 70 g ai/ha): 0; Classification and statistics of the grade of pesticide damage Grade 1 ([2]; isoxaflutole 70 g ai/ha): 0; Classification and statistics of the grade of pesticide damage Grade 2 ([2]; isoxaflutole 70 g ai/ha): 0; Classification and statistics of the grade of pesticide damage Grade 3 ([2]; isoxaflutole 70 g ai/ha): 16; Resistance evaluation ([3]; mesotrione 52.5 g ai/ha): Non-resistant; Scores ([3]; mesotrione 52.5 g ai/ha): 100; Classification and statistics of the grade of pesticide damage Grade 0 ([3]; mesotrione 52.5 g ai/ha): 0; Classification and statistics of the grade of pesticide damage Grade 1 ([3]; mesotrione 52.5 g ai/ha): 0; Classification and statistics of the grade of pesticide damage Grade 2 ([3]; mesotrione 52.5 g ai/ha): 0; Classification and statistics of the grade of pesticide damage Grade 3 ([3]; mesotrione 52.5 g ai/ha): 16; Resistance evaluation ([3]; mesotrione 105 g ai/ha): Non-resistant; Scores ([3]; mesotrione 105 g ai/ha): 100; Classification and statistics of the grade of pesticide damage Grade 0 ([3]; mesotrione 105 g ai/ha): 0; Classification and statistics of the grade of pesticide damage Grade 1 ([3]; mesotrione 105 g ai/ha): 0; Classification and statistics of the grade of pesticide damage Grade 2 ([3]; mesotrione 105 g ai/ha): 0; Classification and statistics of the grade of pesticide damage Grade 3 ([3]; mesotrione 105 g ai/ha): 16 |
| B2 | Poorly | 4 | 4 | 7 | 1 | 44 | Non-resistant | 0 | 0 | 3 | 13 | 94 | Poorly | 54 | 0 | 9 | 4 | 3 | Non-resistant | 100 | Classification and statistics of the grade of pesticide damage Grade 0 ([2]; isoxaflutole 70 g ai/ha): 0; Classification and statistics of the grade of pesticide damage Grade 1 ([2]; isoxaflutole 70 g ai/ha): 0; Classification and statistics of the grade of pesticide damage Grade 2 ([2]; isoxaflutole 70 g ai/ha): 0; Classification and statistics of the grade of pesticide damage Grade 3 ([2]; isoxaflutole 70 g ai/ha): 16; Resistance evaluation ([3]; mesotrione 52.5 g ai/ha): Poorly resistant; Scores ([3]; mesotrione 52.5 g ai/ha): 65; Classification and statistics of the grade of pesticide damage Grade 0 ([3]; mesotrione 52.5 g ai/ha): 0; Classification and statistics of the grade of pesticide damage Grade 1 ([3]; mesotrione 52.5 g ai/ha): 4; Classification and statistics of the grade of pesticide damage Grade 2 ([3]; mesotrione 52.5 g ai/ha): 9; Classification and statistics of the grade of pesticide damage Grade 3 ([3]; mesotrione 52.5 g ai/ha): 3; Resistance evaluation ([3]; mesotrione 105 g ai/ha): Non-resistant; Scores ([3]; mesotrione 105 g ai/ha): 100; Classification and statistics of the grade of pesticide damage Grade 0 ([3]; mesotrione 105 g ai/ha): 0; Classification and statistics of the grade of pesticide damage Grade 1 ([3]; mesotrione 105 g ai/ha): 0; Classification and statistics of the grade of pesticide damage Grade 2 ([3]; mesotrione 105 g ai/ha): 0; Classification and statistics of the grade of pesticide damage Grade 3 ([3]; mesotrione 105 g ai/ha): 16 |
